The source of these data is patent US20140154255A1 (AbbVie / Abbott, published 2014).

The target of experiment [1] is T1, VEGF (R&D systems, Minneapolis, Minn.) (UniProt P15692-4 27-191, limits assumed). The experiment can be described thus: BIAcore SPR, improvement over WT. The protocol: (§1) RL was kept low to minimize avidity due to the dimeric nature of VEGF. No capture of the antibody was made on the reference surface to serve as a negative control. Subsequently, VEGF was injected to all flow cells at a flow rate of 50 μL/min for two minutes to monitor association followed by a 25-minute flow of HBS-P running buffer (10 mM HEPES, 150 mM sodium chloride, 0.005% P-20, pH 7.4) to monitor the dissociation phase. At each cycle, VEGF, in 6 different concentrations of VEGF ranging between 0 nM and 512 nM and at four-fold increments, was injected over the surface. […] Binding data were fit to the 1:1 Langmuir model to extract binding constants from the BIAevaluate software. Double referencing was applied in each analysis to eliminate background responses from the reference surface and buffer only control. All the binding kinetics data were analyzed at least three separate determinations.
T1 sequence (P15692 other isoform, or with tags, fused parts or gaps limits assumed): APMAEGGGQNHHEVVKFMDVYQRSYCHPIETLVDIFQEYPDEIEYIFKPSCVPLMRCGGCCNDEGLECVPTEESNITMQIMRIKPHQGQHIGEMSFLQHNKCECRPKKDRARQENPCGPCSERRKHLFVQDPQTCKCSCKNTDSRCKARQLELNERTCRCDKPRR
Background: Surface plasmon resonance follows binding to a sensor surface in real time, without labels.

For experiment [2], the target named is T1, VEGF (R&D systems, Minneapolis, Minn.). As to the kind of experiment: BIAcore SPR, WT/mutant. The protocol:
as §1

For experiment [3] the target is unchanged. The experiment can be described thus: BIAcore SPR, mutant/WT. The protocol: as §1
The target is the same in experiment [4]. The experiment can be described thus: BIAcore SPR. The protocol: as §1
For experiment [5], the target named is T2, unlabeled human VEGF (ELISA coat) (human, UniProt P15692-4 27-191, limits assumed). The experiment can be described thus: ELISA 1 hr, EC50 WT/EC50 mutant. The protocol: (§2) To detect identified variants binding to antigen, ELISA plates (Nunc-Immuno MaxiSorp plates, Nalge Nunc, Rochester, N.Y.) were coated overnight at 4° C. with unlabeled human VEGF at 1 μg/mL in 0.2 M sodium carbonate-bicarbonate buffer (pH 9.4, Pierce, Rockford, Ill.). The plates were then blocked with SuperBlock Blocking Buffer (Pierce, Rockford, Ill.) for 30 min and washed with Washing Buffer (PBS containing 0.1% Tween 20). All the washing steps were performed for three times. […] The plates were washed and 100 μL of goat anti-human kappa HRP-conjugated antibody (Southern Biotech, Birmingham, Ala.) diluted at 1:1000 in ELISA buffer was added to each well. After 30 minutes of incubation, plates were washed and bound antibodies were detected by addition of TMB 1 Component HRP Microwell substrate (BioFx #TMBW-1000-01). The reaction was terminated by addition of 100 μL/well of 650 nM Stop Reagent for TMB Microwell substrate and the absorbance was measured at 650 nm using a VERSAmax microplate reader (Molecular Devices, Sunnyvale, Calif.). Data were fitted using nonlinear regression with the software […]
T2 sequence (P15692 other isoform, or with tags, fused parts or gaps limits assumed): as above

The target in experiment [6] is T3, human VEGF-A residues 27-191 of Accession #AAV38412 (human, UniProt P15692 27-191).
T3 construct: range 27-191
T3 sequence (P15692 other isoform, or with tags, fused parts or gaps limits assumed): as above
The experiment can be described thus: BIAcore SPR. The protocol: (§3) The binding kinetics and affinity of the antibodies for VEGF (human VEGF-A residues 27-191 of Accession #AAV38412) was determined by using a BIAcore T200 surface plasmon resonance system (BIAcore, GE Healthcare, Piscataway, N.J.). Coupling running buffer was HBS-EP+ running buffer (10 mM HEPES, 150 mM sodium chloride, 3 mM EDTA 0.05% P-20, pH 7.4); assay running buffer was HBS-EP+ with 300 mM sodium chloride and 0.1 mg/mL BSA (Sigma A7906). Polyclonal goat anti-human Fc (Thermo Scientific prod#31125) was first immobilized to the biosensor surface in 10 mM sodium acetate, pH 4.5 using standard BIAcore amine coupling reagents (N-ethyl-N′-dimethylamino-propylcarbodiimide, EDC; N-hydroxysuccinimide, NHS; and ethanolamine HCl, pH 8.5). For binding kinetics assay a series of cycles were performed, each cycle consisted of 1) mAb capture, 2) Ag or buffer injection, 3) dissociation phase and 4) regeneration. Briefly, anti-VEGF antibodies were captured on parallel surfaces at a low flow rate of 10 μL/min. Capture levels were kept low to minimize avidity due to the dimeric nature of VEGF. No capture of the antibody was made on the reference surface to serve for primary referencing and as a negative control. Subsequently, VEGF or buffer only was injected to all flow cells at a flow rate of 80 μL/min for three minutes to monitor association followed by a 20-minute flow of assay rinning buffer at a flow rate of 80 μL/min to monitor dissociation. […] At the end of each cycle the surface was regenerated with 10 mM glycine, pH 1.5 at a flow rate of 60 μL/min in pulses of 60 and 10 sec. Binding data were fit to the 1:1 Langmuir model with mass transport term included using Biacore T200 Evaluation Software to determine the binding constants.

The target in experiment [7] is T2, unlabeled human VEGF (ELISA coat). As to the kind of experiment: ELISA overnight, EC50 WT/EC50 mutant. The protocol:
as §2
Background: ELISA stands for enzyme-linked immunosorbent assay.

The target of experiment [8] is T3, human VEGF-A residues 27-191 of …. As to the kind of experiment: BIAcore SPR, KD WT/KD mutant. The protocol: as §3

B1: 83 (antibody, human IgG1, V domains shown)
VH: EVQLVESGGGLVQPGGSLRLSCAASGYTFTFYGMNWVRQAPGKGLEWVGWINTYTGEPTYAADFKRRFTFSLDTSKSTAYLQMNSLRAEDTAVYYCAKYPPYDGGSHWYFDVWGQGTLVTVSS
VL: DIQMTQSPSSLSASVGDRVTITCSASQDISNYLNWYQQKPGKAPKVLIYFTSSLHSGVPSRFSGSGSGTDFTLTISSLQPEDFATYYCQQYSTVPWTFGQGTKVEIKR
For B1, the ΔKD in experiment [1] came out at 18.6 fold. Further, the Δkoff in experiment [2] was found to be 1.8 fold. In experiment [3], this molecule showed a Δkon of 10.4 fold. In experiment [4], this molecule gave a Kd of 0.106 nM, a koff of 0.000194 s⁻¹ and a kon of 1.88e+06 M⁻¹ s⁻¹.

B2: T30 W (anti-VEGF IgG) (antibody, V domains shown)
VH: EVQLVESGGGLVQPGGSLRLSCAASGYTFWNYGMNWVRQAPGKGLEWVGWINTYTGEPTYAADFKRRFTFSLDTSKSTAYLQMNSLRAEDTAVYYCAKYPHYYGSSHWYFDVWGQGTLVTVSS
VL: DIQMTQSPSSLSASVGDRVTITCSASQDISNYLNWYQQKPGKAPKVLIYFTSSLHSGVPSRFSGSGSGTDFTLTISSLQPEDFATYYCQQYSTVPWTFGQGTKVEIK
notes: copies: 2 + 2
On to B2, for which the “ELISA 1hr binding” value in experiment [5] was 2.9 fold. For the same molecule, in experiment [6], binding was characterised by a dissociation constant (Kd) of 0.309 nM, the koff was found to be 5.74e-05 s⁻¹ and the kon was determined as 186000 M⁻¹ s⁻¹. Also, the ELISA o/n binding in experiment [7] came to 4.5 fold. In addition, the affinity improvement in experiment [8] is 1.6 fold.

B3: 84 (antibody, human IgG1, V domains shown)
VH: EVQLVESGGGLVQPGGSLRLSCAASGYTFTFYGMNWVRQAPGKGLEWVGWINTYTGEPTYAADFKRRFTFSLDTSKSTAYLQMNSLRAEDTAVYYCAKYPPYEGSSHWYFDVWGQGTLVTVSS
VL: DIQMTQSPSSLSASVGDRVTITCSASQDISNYLNWYQQKPGKAPKVLIYFTSSLHSGVPSRFSGSGSGTDFTLTISSLQPEDFATYYCQQYSTVPWTFGQGTKVEIKR
Consider B3, for which, in experiment [1], the ΔKD is 15.3 fold. In experiment [2], this molecule registered a Δkoff of 1.9 fold. This molecule gave a Δkon in experiment [3] of 8.9 fold. In experiment [4], this molecule yielded a Kd of 0.128 nM, an off-rate (koff) of 0.000182 s⁻¹ and a kon of 1.6e+06 M⁻¹ s⁻¹.

B4: 85 (antibody, human IgG1, V domains shown)
VH: EVQLVESGGGLVQPGGSLRLSCAASGYTFTFYGMNWVRQAPGKGLEWVGWINTYTGEPTYAADFKRRFTFSLDTSKSTAYLQMNSLRAEDTAVYYCAKYPEYEGSSHWYFDVWGQGTLVTVSS
VL: DIQMTQSPSSLSASVGDRVTITCSASQDISNYLNWYQQKPGKAPKVLIYFTSSLHSGVPSRFSGSGSGTDFTLTISSLQPEDFATYYCQQYSTVPWTFGQGTKVEIKR
As to B4, the ΔKD in experiment [1] came to 14.1 fold. This molecule returned a Δkoff in experiment [2] of 2 fold. Further, in experiment [3], the Δkon is 6.9 fold. Moreover, in experiment [4], binding was put at a Kd of 0.14 nM, the koff was 0.000175 s⁻¹ and the kon was 1.25e+06 M⁻¹ s⁻¹.

B5: T28 R (anti-VEGF IgG) (antibody, V domains shown)
VH: EVQLVESGGGLVQPGGSLRLSCAASGYRFTNYGMNWVRQAPGKGLEWVGWINTYTGEPTYAADFKRRFTFSLDTSKSTAYLQMNSLRAEDTAVYYCAKYPHYYGSSHWYFDVWGQGTLVTVSS
VL: DIQMTQSPSSLSASVGDRVTITCSASQDISNYLNWYQQKPGKAPKVLIYFTSSLHSGVPSRFSGSGSGTDFTLTISSLQPEDFATYYCQQYSTVPWTFGQGTKVEIK
notes: copies: 2 + 2
Take B5: the “ELISA 1hr binding” value in experiment [5] amounted to 1.4 fold. In experiment [6], this molecule gave a Kd of 0.675 nM, a koff of 6.44e-05 s⁻¹ and a kon of 95400 M⁻¹ s⁻¹. The ELISA o/n binding in experiment [7] is 1.8 fold. The molecule further returned an affinity improvement in experiment [8] of 0.6 fold.

B6: T30 R (anti-VEGF IgG) (antibody, V domains shown)
VH: EVQLVESGGGLVQPGGSLRLSCAASGYTFRNYGMNWVRQAPGKGLEWVGWINTYTGEPTYAADFKRRFTFSLDTSKSTAYLQMNSLRAEDTAVYYCAKYPHYYGSSHWYFDVWGQGTLVTVSS
VL: DIQMTQSPSSLSASVGDRVTITCSASQDISNYLNWYQQKPGKAPKVLIYFTSSLHSGVPSRFSGSGSGTDFTLTISSLQPEDFATYYCQQYSTVPWTFGQGTKVEIK
notes: copies: 2 + 2
As for B6, in experiment [5], the “ELISA 1hr binding” value was found to be 2.9 fold. In experiment [6], the Kd stood at 0.644 nM, the koff was 6.76e-05 s⁻¹ and the kon turned out to be 105000 M⁻¹ s⁻¹. The ELISA o/n binding in experiment [7] worked out at 3.2 fold. In experiment [8], this molecule yielded an affinity improvement of 1.3 fold.

B7: T28 Y (anti-VEGF IgG) (antibody, V domains shown)
VH: EVQLVESGGGLVQPGGSLRLSCAASGYYFTNYGMNWVRQAPGKGLEWVGWINTYTGEPTYAADFKRRFTFSLDTSKSTAYLQMNSLRAEDTAVYYCAKYPHYYGSSHWYFDVWGQGTLVTVSS
VL: DIQMTQSPSSLSASVGDRVTITCSASQDISNYLNWYQQKPGKAPKVLIYFTSSLHSGVPSRFSGSGSGTDFTLTISSLQPEDFATYYCQQYSTVPWTFGQGTKVEIK
notes: copies: 2 + 2
Turning to B7, in experiment [5], the “ELISA 1hr binding” value stood at 5.2 fold. In experiment [6], binding was put at a Kd of 0.52 nM, the koff amounted to 6.32e-05 s⁻¹ and the kon turned out to be 122000 M⁻¹ s⁻¹. The ELISA o/n binding in experiment [7] amounted to 3.4 fold. The affinity improvement in experiment [8] is 1 fold.

B8: T30 N (anti-VEGF IgG) (antibody, V domains shown)
VH: EVQLVESGGGLVQPGGSLRLSCAASGYTFNNYGMNWVRQAPGKGLEWVGWINTYTGEPTYAADFKRRFTFSLDTSKSTAYLQMNSLRAEDTAVYYCAKYPHYYGSSHWYFDVWGQGTLVTVSS
VL: DIQMTQSPSSLSASVGDRVTITCSASQDISNYLNWYQQKPGKAPKVLIYFTSSLHSGVPSRFSGSGSGTDFTLTISSLQPEDFATYYCQQYSTVPWTFGQGTKVEIK
notes: copies: 2 + 2
On to B8, for which the “ELISA 1hr binding” value in experiment [5] is 2.4 fold. In addition, in experiment [6], the Kd is 0.303 nM, the koff is 5.14e-05 s⁻¹ and the kon is 170000 M⁻¹ s⁻¹. For the same molecule, in experiment [7], the ELISA o/n binding worked out at 4 fold. In experiment [8], the affinity improvement was found to be 1.7 fold.

B9: 86 (antibody, human IgG1, V domains shown)
VH: EVQLVESGGGLVQPGGSLRLSCAASGYTFTFYGMNWVRQAPGKGLEWVGWINTYTGEPTYAADFKRRFTFSLDTSKSTAYLQMNSLRAEDTAVYYCAKYPDYEGSSHWYFDVWGQGTLVTVSS
VL: DIQMTQSPSSLSASVGDRVTITCSASQDISNYLNWYQQKPGKAPKVLIYFTSSLHSGVPSRFSGSGSGTDFTLTISSLQPEDFATYYCQQYSTVPWTFGQGTKVEIKR
Turning to B9, the ΔKD in experiment [1] was determined as 11 fold. The molecule further showed a Δkoff in experiment [2] of 1.5 fold. In addition, the Δkon in experiment [3] worked out at 7.4 fold. Moreover, in experiment [4], binding was characterised by a dissociation constant (Kd) of 0.179 nM, the koff stood at 0.000238 s⁻¹ and the kon was determined as 1.33e+06 M⁻¹ s⁻¹.

In general, Kd refers to the constant that tells how readily two partners part at equilibrium. Lower therefore signals a tighter complex. For orientation: koff means a measure of how fast the partners let go of each other. A low value points to slow dissociation. One may read the kon as a measure of how fast the partners come together.
